Assay [1] has as its target T1, recombinant human CD25 his tagged (UniProt P01589 22-213).
T1 chain: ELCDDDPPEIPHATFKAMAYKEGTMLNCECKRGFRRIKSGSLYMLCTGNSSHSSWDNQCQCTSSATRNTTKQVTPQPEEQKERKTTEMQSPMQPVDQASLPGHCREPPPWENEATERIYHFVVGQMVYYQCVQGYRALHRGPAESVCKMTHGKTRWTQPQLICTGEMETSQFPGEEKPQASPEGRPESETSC
Kind of assay: SPR (Biacore 2000).

The target in assay [2] is T1, recombinant human CD25 his tagged. Kind of assay: SPR (Biacore 2000).

Read-outs that look alike come from different tables or passages of the source.

Consider four molecules from US20210040221A1 (published 2021).

B1: Antibody 3 (antibody, V domains shown)
VH: EVQLLESGGGLVQPGGSLRLSCAASGFTFSSYGMSWVRQAPGKGLELVSTINGYGDTTYYPDSVKGRFTISRDNAKNTLYLQMNSLRAEDTAVYFCARDRDYGNSYYYALDYWGQGTLVTVSS
VL: EIVLTQSPGTLSLSPGERATLSCRASSSVSFMHWLQQKPGQAPRPLIYATSNLASGIPDRFSGSGSGTDYTLTISRLEPEDFAVYYCQQWSSNPPAFGQGTKLEIK
For B1, the Kd in assay [1] worked out at 6.1 nM.

B2: Antibody 1 (antibody, V domains shown)
VH: EVQLLESGGGLVQPGGSLRLSCAASGFTFSSYGMSWVRQAPGKGLELVSTINGYGDTTYYPDSVKGRFTISRDNSKNTLYLQMNSLRAEDTAVYYCARDRDYGNSYYYALDYWGQGTLVTVSS
VL: EIVLTQSPGTLSLSPGERATLSCRASSSVSFMHWLQQKPGQAPRPLIYATSNLASGIPDRFSGSGSGTDYTLTISRLEPEDFAVYYCQQWSSNPPAFGQGTKLEIK
As for B2, in assay [2], the Kd was 4.7 nM.

B3: Antibody 4 (antibody, V domains shown)
VH: EVQLLESGGGLVQPGGSLRLSCAASGFTFSSYGMSWVRQAPGKGLELVSTINGYGDTTYYPDSVKGRFTISRDNAKNTLYLQMNSLRAEDTAVYFCARDRDYGNSYYYALDYWGQGTLVTVSS
VL: QIVLTQSPGTLSLSPGERATLSCRASSSVSFMHWLQQKPGQSPRPLIYATSNLASGIPDRFSGSGSGTDYTLTISRLEPEDFAVYYCQQWSSNPPAFGQGTKLEIK
B3: in assay [1], the Kd was determined as 5.5 nM.

B4: Antibody 2 (antibody, V domains shown)
VH: EVQLLESGGGLVQPGGSLRLSCAASGFTFSSYGMSWVRQAPGKGLELVSTINGYGDTTYYPDSVKGRFTISRDNSKNTLYLQMNSLRAEDTAVYYCARDRDYGNSYYYALDYWGQGTLVTVSS
VL: QIVLTQSPGTLSLSPGERATLSCRASSSVSFMHWLQQKPGQSPRPLIYATSNLASGIPDRFSGSGSGTDYTLTISRLEPEDFAVYYCQQWSSNPPAFGQGTKLEIK
On to B4, for which the Kd in assay [2] stood at 6.1 nM.
